Laboratory results reported in article PMC11500471 (Protein Science : A Publication of the Protein Society, 2024).
Where a chain is given by its changes, count along the chain named. In names and notes the source's numbering stands. Several values for one entry are separate records, joined by “and”; a condition that tells them apart may be missing. Identical values can stand only once. Like-named read-outs stand apart in the source and are kept apart here. Each block holds one molecule with its values, some of them ahead of it.

Tests used:
[1] = biological target: GRPEL2, human, recombinant, without mitochondrial targeting sequence, His tag kept (human) (UniProt Q8TAA5); experiment: SEC-MALS
[2] = biological target: mitochondrial HSP70 (mtHSP70), human, recombinant, His-tagged (human) (UniProt P38646); experiment: SEC-MALS
[3] = biological target: GRPEL1, human, recombinant, without mitochondrial targeting sequence, His tag kept (human) (UniProt Q9HAV7); experiment: SEC-MALS
[4] = biological target: mitochondrial HSP70 (mtHSP70), human, recombinant, His-tagged (human) (UniProt P38646); experiment: MST
[5] = biological target: mitochondrial HSP70 (mtHSP70), human, recombinant, His-tagged (human) (UniProt P38646); experiment: MST; remark: listed apart in the source
[6] = biological target: mitochondrial HSP70 (mtHSP70), human, recombinant, His-tagged (human) (UniProt P38646); experiment: MST; remark: listed apart in the source
[7] = biological target: the molecule itself; experiment: SEC-MALS

- stoichiometry N [1]: 2 and 4
Molecule: GRPEL2, human, recombinant, without mitochondrial targeting sequence, His tag kept (from UniProt Q8TAA5 33-225) (natural protein)

- stoichiometry N (GRPEL1 per mtHSP70 (2:1 complex)) [2]: 2
- stoichiometry N (GRPEL1 per mtHSP70 (2:2 complex)) [2]: 1
- stoichiometry N [3]: 2 and 4
Molecule: GRPEL1, human, recombinant, without mitochondrial targeting sequence, His tag kept (from UniProt Q9HAV7 28-217) (natural protein)

- Kd [4]: 152 nM
- Kd [5]: 373 nM
- Kd [6]: 942 nM
B1: GRPEL2, human, recombinant, without mitochondrial targeting sequence, His tag cleaved at the TEV site (natural protein)
chain: STATQRTAGEDCRSEDPPDELGPPLAERALRVKAVKLEKEVQDLTVRYQRAIADCENIRRRTQRCVEDAKIFGIQSFCKDLVEVADILEKTTECISEESEPEDQKLTLEKVFRGLLLLEAKLKSVFAKHGLEKLTPIGDKYDPHEHELICHVPAGVGVQPGTVALVRQDGYKLHGRTIRLARVEVAVESQRRL

- Kd [5]: 457 nM
B2: GRPEL2-C97A, human, recombinant, without mitochondrial targeting sequence, His tag kept (natural protein, UniProt Q8TAA5 33-225, looked up)
chain: B1 chain with C65A
- stoichiometry N [7]: 2 and 4

- Kd [5]: 203 nM
- Kd [6]: 204 nM
B3: GRPEL2-C87A, human, recombinant, without mitochondrial targeting sequence, His tag kept (natural protein, UniProt Q8TAA5 33-225, looked up)
chain: B1 chain with C55A
- stoichiometry N [7]: 2 and 4
